Reference: the supplement of paper PMC9233669
This sample holds only a part of the variants without activity.

Key:
[1] = system: biotinyl-Met-oxazolone; test: self-aminoacylation, catalytic enhancement (BMO) (fold over background); higher = more active; k-Seq, kA / k0A0; sequences stand for … in GGGAAUGGAUCCACAUCUACGAAUUC…UUCACUGCAGACUUGACGAAGCUG
Procedure, shortened: (§1)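 Working in 50 μL HEPES/NaCl/KCl/MgCl2/CaCl2 buffer with 5% acetonitrile at pH 6.9–7.0, mutagenized RNA pools (0.43 μM; 21-nt variable region) were reacted with 2–1250 μM of each biotinyl-aminoacyl-oxazolone for 90 minutes at room temperature. Streptavidin capture followed, with quantification by triplicate qPCR and Illumina sequencing. Catalytic enhancement is reported as median kA over the uncatalyzed rate, the low-activity peak of a bimodal Gaussian fit to the data.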

[2] = system: biotinyl-Trp-oxazolone; test: self-aminoacylation, catalytic enhancement (BWO) (fold over background); higher = more active; k-Seq, kA / k0A0; sequences stand for … in GGGAAUGGAUCCACAUCUACGAAUUC…UUCACUGCAGACUUGACGAAGCUG
Procedure, shortened: as §1

[3] = system: biotinyl-Phe-oxazolone; test: self-aminoacylation, catalytic enhancement (BFO) (fold over background); higher = more active; k-Seq, kA / k0A0; sequences stand for … in GGGAAUGGAUCCACAUCUACGAAUUC…UUCACUGCAGACUUGACGAAGCUG
Procedure, shortened: as §1

[4] = system: biotinyl-Leu-oxazolone; test: self-aminoacylation, catalytic enhancement (BLO) (fold over background); higher = more active; k-Seq, kA / k0A0; sequences stand for … in GGGAAUGGAUCCACAUCUACGAAUUC…UUCACUGCAGACUUGACGAAGCUG
Procedure, shortened: as §1

[5] = system: biotinyl-Val-oxazolone; test: self-aminoacylation, catalytic enhancement (BVO) (fold over background); higher = more active; k-Seq, kA / k0A0; sequences stand for … in GGGAAUGGAUCCACAUCUACGAAUUC…UUCACUGCAGACUUGACGAAGCUG
Procedure, shortened: as §1

[6] = system: biotinyl-Ile-oxazolone; test: self-aminoacylation, catalytic enhancement (BIO) (fold over background); higher = more active; k-Seq, kA / k0A0; sequences stand for … in GGGAAUGGAUCCACAUCUACGAAUUC…UUCACUGCAGACUUGACGAAGCUG
Procedure, shortened: as §1

| Sequence | self-aminoacylation [1] | self-aminoacylation [2] | self-aminoacylation [3] | self-aminoacylation [4] | self-aminoacylation [5] | self-aminoacylation [6] |
| --- | --- | --- | --- | --- | --- | --- |
| CUACUUCAAACAAACGGUCUU [Fam1A.1 aminoacylation ribozyme variant] | 0.982 | 0.74 | 0.824 | 0.879 | 0.901 | 0.904 |
| CUACUUCAAACAAACGGUUUG [Fam1A.1 aminoacylation ribozyme variant] | 0.719 | 0.396 | 0.656 | 0.67 | 0.796 | 0.803 |
| CUACUUCAAACAACCGGGCUG [Fam1A.1 aminoacylation ribozyme variant] | 1.35 | 0.852 | 2.15 | 1.27 | 1.22 | 1.46 |
| CUACUUCAAACAACCGGUCCG [Fam1A.1 aminoacylation ribozyme variant] | 0.703 | 1 | 0.643 | 0.962 | 1.01 | 0.993 |
| CUACUUCAAACAACCGGUCUU [Fam1A.1 aminoacylation ribozyme variant] | 0.686 | 1.05 | 0.875 | 0.871 | 0.899 | 1.32 |
| CUACUUCAAACAACCGUUCUG [Fam1A.1 aminoacylation ribozyme variant] | 0.611 | 0.515 | 0.558 | 0.625 | 0.676 | 0.723 |
| CUACUUCAAACAAGCGCUCUG [Fam1A.1 aminoacylation ribozyme variant] | 0.654 | 0.842 | 0.571 | 0.852 | 0.86 | 0.868 |
| CUACUUCAAACAAGUGGUCUG [Fam1A.1 aminoacylation ribozyme variant] | 0.7 | 0.516 | 0.734 | 0.885 | 0.919 | 0.968 |
| CUACUUCAAACAAUAGGACUG [Fam1A.1 aminoacylation ribozyme variant] | 0.6 | 0.515 | 0.544 | 0.585 | 0.625 | 0.633 |
| CUACUUCAAACAAUAGGGCUG [Fam1A.1 aminoacylation ribozyme variant] | 0.557 | 0.391 | 0.8 | 0.523 | 0.631 | 0.844 |
| CUACUUCAAACAAUCCGUCGG [Fam1A.1 aminoacylation ribozyme variant] | 0.867 | 0.636 | 1.23 | 0.901 | 0.98 | 0.947 |
| CUACUUCAAACAAUCCGUCUA [Fam1A.1 aminoacylation ribozyme variant] | 0.611 | 0.596 | 1.07 | 0.651 | 0.88 | 0.801 |
| CUACUUCAAACAAUCGAUCAG [Fam1A.1 aminoacylation ribozyme variant] | 0.497 | 0.617 | 1.15 | 0.659 | 0.654 | 0.554 |
| CUACUUCAAACAAUCGCGCUG [Fam1A.1 aminoacylation ribozyme variant] | 1.52 | 1.1 | 1.59 | 1.88 | 1.35 | 1.47 |
| CUACUUCAAACAAUCGCUAUG [Fam1A.1 aminoacylation ribozyme variant] | 0.958 | 0.755 | 1.32 | 0.878 | 0.973 | 0.99 |
| CUACUUCAAACAAUCGCUCGG [Fam1A.1 aminoacylation ribozyme variant] | 0.763 | 0.747 | 0.822 | 0.768 | 0.954 | 1.02 |
| CUACUUCAAACAAUCGGACUC [Fam1A.1 aminoacylation ribozyme variant] | 0.563 | 2.57 | 5.7 | 0.624 | 0.7 | 0.675 |
| CUACUUCAAACAAUCGGCUUG [Fam1A.1 aminoacylation ribozyme variant] | 1.1 | 2.53 | 2.59 | 1.21 | 1.35 | 1.27 |
| CUACUUCAAACAAUCGGUCAU [Fam1A.1 aminoacylation ribozyme variant] | 0.666 | 1.88 | 4.39 | 0.892 | 1.01 | 0.892 |
| CUACUUCAAACAAUCGGUCGA [Fam1A.1 aminoacylation ribozyme variant] | 0.807 | 6.82 | 14.9 | 0.992 | 0.974 | 0.884 |
| CUACUUCAAACAAUCGUUCUA [Fam1A.1 aminoacylation ribozyme variant] | 0.545 | 0.631 | 1.08 | 0.559 | 0.801 | 0.582 |
| CUACUUCAAACAAUUGGUGUG [Fam1A.1 aminoacylation ribozyme variant] | 1.24 | 1.23 | 1.52 | 1.62 | 1.12 | 1.19 |
| CUACUUCAAACACUCCGUCUG [Fam1A.1 aminoacylation ribozyme variant] | 0.845 | 0.771 | 0.78 | 0.727 | 0.869 | 0.772 |
| CUACUUCAAACAGUCGGUAUG [Fam1A.1 aminoacylation ribozyme variant] | 0.587 | 0.554 | 0.447 | 0.532 | 0.552 | 0.6 |
| CUACUUCAAACAUUCAGUCUG [Fam1A.1 aminoacylation ribozyme variant] | 0.734 | 0.602 | 0.971 | 0.741 | 0.812 | 1.04 |
| CUACUUCAAACAUUCGGUAUG [Fam1A.1 aminoacylation ribozyme variant] | 0.993 | 0.924 | 0.64 | 1.05 | 1.12 | 0.968 |
